{
  "source": "paper PMC10164576",
  "about": "“Interaction with the carboxy-terminal tip of SSB is critical for RecG function in E. coli” (Nucleic Acids Research, 2023)",
  "molecules": {"B1": {"name": "RecG DNA helicase, wildtype (enzyme)", "chain": "MKGRLLDAVPLSSLTGVGAALSNKLAKINLHTVQDLLLHLPLRYEDRTHLYPIGELLPGVYATVEGEVLNCNISFGGRRMMTCQISDGSGILTMRFFNFSAAMKNSLAAGRRVLAYGEAKRGKYGAEMIHPEYRVQGDLSTPELQETLTPVYPTTEGVKQATLRKLTDQALDLLDTCAIEELLPPELSQGMMTLPEALRTLHRPPPTLQLSDLETGQHPAQRRLILEELLAHNLSMLALRAGAQRFHAQPLSANDTLKNKLLAALPFKPTGAQARVVAEIERDMALDVPMMRLVQGDVGSGKTLVAALAALRAIAHGKQVALMAPTELLAEQHANNFRNWFAPLGIEVGWLAGKQKGKARLAQQEAIASGQVQMIVGTHAIFQEQVQFNGLALVIIDEQHRFGVHQRLALWEKGQQQGFHPHQLIMTATPIPRTLAMTAYADLDTSVIDELPPGRTPVTTVAIPDTRRTDIIDRVHHACITEGRQAYWVCTLIEESELLEAQAAEATWEELKLALPELNVGLVHGRMKPAEKQAVMASFKQGELHLLVATTVIEVGVDVPNASLMIIENPERLGLAQLHQLRGRVGRGAVASHCVLLYKTPLSKTAQIRLQVLRDSNDGFVIAQKDLEIRGPGELLGTRQTGNAEFKVADLLRDQAMIPEVQRLARHIHERYPQQAKALIERWMPETERYSNA"}, "B2": {"name": "SSB-Ct peptide, 6-FAM labelled (peptide)", "peptide": "6FAM-WMDFDDDIPF", "notes": "N-terminal tryptophan residue added for quantification; C-terminal tip of SSB, E. coli; also called fluorescently labeled SSB-Ct peptide; source: synthetic peptide (Genscript)"}},
  "key": {"RecG R474E": {"target": "RecG R474E (Escherichia coli, UniProt P24230, R474E)", "assay": "Fluorescence anisotropy binding of 6-FAM-labelled SSB-Ct peptide to RecG R474E", "design": "species or system E. coli", "conditions": "10 nM 6-FAM peptide, pH 7.6, 25°C, triplicate, read-out: FP K D", "source_text": "In vivo assembly mutagenesis ([78]) was used to introduce the R474E or R95A mutation into RecG overexpression plasmid pEAW111 to create variant overexpression plasmids pNJB3 and pEAW1324, respectively. RecG R474E or RecG R95A were expressed in STL2669/pT7pol26 and purified using the same purification scheme as wildtype RecG. The purified proteins appeared as single bands on SDS-PAGE gels and were quantified using monomer extinction coefficient ε280 nm = 5.022 × 10^4 M^−1 cm^−1. The RecG R95A preparation included a very weak nickase contaminant.\nSSB peptides (sequences listed in Figure 2) were designed with an N-terminal tryptophan residue for quantification and N-terminal 6-FAM label (Genscript). […] Fluorescence polarization (FP) values were measured at 25°C using a Beacon 2000 Fluorescence Polarization System. Polarization values were normalized to the FP value measured at 0 nM RecG. […]\nTo more rigorously and quantitatively test the RecG HD2/SSB-Ct binding model, a RecG variant in which one of the putative SSB-binding residues is altered (RecG R474E) was purified and tested for binding to the SSB-Ct peptide and to full-length SSB in vitro. […] Binding was not detected in either titration (Figure 4C). […]"}, "AlkB protein": {"system": "AlkB protein", "conditions": "peptide identical to IDL residues 152–169; cited from earlier work", "source_text": "The IDL peptide that was used included residues 152–169 of SSB, which has two of the three PxxP motifs in E. coli SSB."}, "RecG (WT)": {"target": "T1, RecG (WT) (Escherichia coli, UniProt P24230)", "T1 construct": "RecG was expressed in STL2669/pT7pol26 (a gift from Dr Susan Lovett, Brandeis University) with overexpression plasmid pEAW111; made in house; host or cells: E. coli STL2669/pT7pol26", "assay": "Fluorescence anisotropy binding of 6-FAM-labelled SSB peptides to wildtype RecG", "design": "species or system E. coli", "conditions": "read-out: FP K D; WT RecG; fluorescence anisotropy; 10 nM N-terminal 6-FAM peptide; 0.2 M potassium glutamate, 25 mM Tris-acetate pH 7.6, 10 mM magnesium acetate; 30 min at room temperature, read at 25°C; one site fit; triplicate", "procedure": "SSB peptides (sequences listed in Figure 2) were designed with an N-terminal tryptophan residue for quantification and N-terminal 6-FAM label (Genscript). RecG was incubated with 0.2 M potassium glutamate, 1 mM DTT, 0.1 μg/ml BSA, 1 × RecA buffer (25 mM Tris-acetate, pH 7.6, 5% w/v glycerol, 3 mM potassium glutamate, 10 mM magnesium acetate, 1 mM DTT), and 10 nM labeled peptide at room temperature for 30 min. Fluorescence polarization (FP) values were measured at 25°C using a Beacon 2000 Fluorescence Polarization System. Polarization values were normalized to the FP value measured at 0 nM RecG. Normalized FP was converted to normalized anisotropy. Experiments were performed in triplicate, and the data were fit to a one site binding model (, where X is ligand concentration, Y is normalized anisotropy, Bmax is the maximum anisotropy, and KD is the dissociation constant) using GraphPad Prism Software.\nFigure 2. RecG binds directly and specifically to the SSB-Ct. (A) Fluorescence anisotropy binding isotherms for RecG binding to SSB-Ct (black), SSB113 (violet), SSBΔF (blue), or SSB IDL (green) peptides. Peptide sequences are listed in parentheses with * representing an N-terminal 6-FAM label. Anisotropy values are normalized to the reading at 0 μM RecG. […] (B–E) ITC analysis of RecG/SSB binding. Thermograms (top) and binding isotherms (bottom) of titrations of (B) full-length SSB, (C) SSB-Ct peptide, (D) SSBΔF or (E) SSBΔF peptide into RecG solutions.\nTwo models explaining how RecG interacts with SSB have been proposed - RecG could interact with the SSB-Ct ([29]) or RecG could interact with the IDL ([48],[49]). To begin testing each model, we used an equilibrium fluorescence anisotropy assay to measure RecG binding to fluorescently labeled SSB-Ct or IDL peptides (Figure 2). Titration of RecG with the SSB-Ct peptide led to an increase in fluorescence anisotropy, which occurs when protein binding slows the tumbling rate of a labeled peptide ([90]). […] KD values in the low micromolar range are typical for SSB/SIP complexes ([10],[12–14],[19],[23]). […]"}, "[1]": {"target": "SSBΔF peptide, 6-FAM labelled (E. coli)", "assay": "fluorescence polarisation; RecG titrated against 10 nM 6-FAM peptide; 0.2 M potassium glutamate, 1 mM DTT, 0.1 μg/ml BSA, 1x RecA buffer (25 mM Tris-acetate pH 7.6, 5% glycerol, 10 mM magnesium acetate); 30 min at room temperature, read at 25°C; one site binding model, triplicate"}, "[2]": {"target": "SSB113 peptide, 6-FAM labelled (E. coli) (UniProt P0AGE0)", "sequence (P0AGE0 whole entry, looked up)": "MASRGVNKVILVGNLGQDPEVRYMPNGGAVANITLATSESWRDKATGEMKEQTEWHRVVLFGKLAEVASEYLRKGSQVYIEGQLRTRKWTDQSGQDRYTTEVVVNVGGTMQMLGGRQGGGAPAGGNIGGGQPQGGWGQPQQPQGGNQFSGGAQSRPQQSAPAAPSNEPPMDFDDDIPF", "assay": "fluorescence polarisation; RecG titrated against 10 nM 6-FAM peptide; 0.2 M potassium glutamate, 1 mM DTT, 0.1 μg/ml BSA, 1x RecA buffer (25 mM Tris-acetate pH 7.6, 5% glycerol, 10 mM magnesium acetate); 30 min at room temperature, read at 25°C; one site binding model, triplicate"}, "[3]": {"target": "T2, RecG DNA helicase, wildtype (E. coli, UniProt P24230 1-693)", "T2 construct": "RecG DNA helicase, E. coli, expressed from overexpression plasmid pEAW111; No tag is mentioned; also called WT RecG; source: E. coli STL2669/pT7pol26 with pEAW111, purified (ammonium sulfate, DEAE, Source 15Q, Source 15S)", "T2 sequence (looked up)": "B1 chain", "assay": "fluorescence polarisation; RecG titrated against 10 nM 6-FAM peptide; 0.2 M potassium glutamate, 1 mM DTT, 0.1 μg/ml BSA, 1x RecA buffer (25 mM Tris-acetate pH 7.6, 5% glycerol, 10 mM magnesium acetate); 30 min at room temperature, read at 25°C; one site binding model, triplicate", "conditions": "both partners purified"}, "RecG R95A": {"target": "T3, RecG R95A (E. coli, UniProt P24230 1-693, R95A)", "T3 construct": "RecG DNA helicase, E. coli, R95A introduced into pEAW111 to give pEAW1324; The preparation included a very weak nickase contaminant; source: E. coli STL2669/pT7pol26 with pEAW1324, purified (same scheme as wildtype RecG)", "T3 sequence (looked up)": "B1 chain with R95A", "assay": "fluorescence polarisation; RecG titrated against 10 nM 6-FAM peptide; 0.2 M potassium glutamate, 1 mM DTT, 0.1 μg/ml BSA, 1x RecA buffer (25 mM Tris-acetate pH 7.6, 5% glycerol, 10 mM magnesium acetate); 30 min at room temperature, read at 25°C; one site binding model, triplicate", "conditions": "both partners purified"}},
  "note": "Positions count from the first letter of the chain named. Where a SMILES comes first, the peptide text is derived from it. Where no end group is shown, it is not given here. The star is where a group is joined. 6FAM = O=C1OC2(c3ccc(O)cc3Oc3cc(O)ccc32)c2cc(C(=O)*)ccc21",
  "data": [
    {"molecule": "WMDFDDDIPF [SSB-Ct peptide]", "values": [
      {"measurement": "Kd", "setting": "RecG R474E", "value": "> 30", "unit": "µM"}
    ]},
    {"molecule": "C[C@H](NC(=O)[C@H](Cc1c[nH]c2ccccc12)NC(=O)c1ccc2c(c1)C1(OC2=O)c2ccc(O)cc2Oc2cc(O)ccc21)C(=O)N[C@@H](CCC(N)=O)C(=O)N[C@@H](CO)C(=O)N[C@@H](CCCNC(=N)N)C(=O)N1CCC[C@H]1C(=O)N[C@@H](CCC(N)=O)C(=O)N[C@@H](CCC(N)=O)C(=O)N[C@@H](CO)C(=O)N[C@@H](C)C(=O)N1CCC[C@H]1C(=O)N[C@@H](C)C(=O)N[C@@H](C)C(=O)N1CCC[C@H]1C(=O)N[C@@H](CO)C(=O)N[C@@H](CC(N)=O)C(=O)N[C@@H](CCC(=O)O)C(=O)N1CCC[C@H]1C(=O)O", "note": "[IDL 152–169 peptide] (6FAM-WAQSRPQQSAPAAPSNEP-OH; C-terminus assumed)", "values": [
      {"measurement": "binding to AlkB, in words", "setting": "AlkB protein", "value": "previously reported to bind to the AlkB protein"},
      {"measurement": "Kd", "setting": "RecG (WT)", "value": "> 30", "unit": "µM"}
    ]},
    {"molecule": "B1", "values": [
      {"measurement": "Kd", "setting": "[1]", "value": "> 30", "unit": "µM"},
      {"measurement": "Kd", "setting": "[2]", "value": 23, "unit": "µM"}
    ]},
    {"molecule": "B2", "values": [
      {"measurement": "Kd", "setting": "[3]", "value": "3.1 ± 0.4", "unit": "µM"},
      {"measurement": "Kd", "setting": "RecG R95A", "value": "1.8 ± 0.4", "unit": "µM"}
    ]}
  ]
}
